Article PMC10648141, “Screening of Oral Potential Angiotensin-Converting Enzyme Inhibitory Peptides from Zizyphus jujuba Proteins Based on Gastrointestinal Digestion In Vivo” (International Journal of Molecular Sciences, 2023)
Several values for one entry are separate records, joined by “and”; a condition that tells them apart may be missing. Equal entries are not always repeated. Residues, ends and D or L forms follow the SMILES beside them. No end group written: not given here.

Target: T1, ACE (Homo sapiens, UniProt P12821)
T1 construct: purchased Sigma-Aldrich
Experiment: not given
Parameters: method as in our group and the DFBP database
Conditions: ACE-inhibitory activity used as 3D-QSAR input (training set 34, test set 12 marked *); ref our group and the DFBP database; cited from earlier work

T1 sequence (P12821 30-1306, species assumed): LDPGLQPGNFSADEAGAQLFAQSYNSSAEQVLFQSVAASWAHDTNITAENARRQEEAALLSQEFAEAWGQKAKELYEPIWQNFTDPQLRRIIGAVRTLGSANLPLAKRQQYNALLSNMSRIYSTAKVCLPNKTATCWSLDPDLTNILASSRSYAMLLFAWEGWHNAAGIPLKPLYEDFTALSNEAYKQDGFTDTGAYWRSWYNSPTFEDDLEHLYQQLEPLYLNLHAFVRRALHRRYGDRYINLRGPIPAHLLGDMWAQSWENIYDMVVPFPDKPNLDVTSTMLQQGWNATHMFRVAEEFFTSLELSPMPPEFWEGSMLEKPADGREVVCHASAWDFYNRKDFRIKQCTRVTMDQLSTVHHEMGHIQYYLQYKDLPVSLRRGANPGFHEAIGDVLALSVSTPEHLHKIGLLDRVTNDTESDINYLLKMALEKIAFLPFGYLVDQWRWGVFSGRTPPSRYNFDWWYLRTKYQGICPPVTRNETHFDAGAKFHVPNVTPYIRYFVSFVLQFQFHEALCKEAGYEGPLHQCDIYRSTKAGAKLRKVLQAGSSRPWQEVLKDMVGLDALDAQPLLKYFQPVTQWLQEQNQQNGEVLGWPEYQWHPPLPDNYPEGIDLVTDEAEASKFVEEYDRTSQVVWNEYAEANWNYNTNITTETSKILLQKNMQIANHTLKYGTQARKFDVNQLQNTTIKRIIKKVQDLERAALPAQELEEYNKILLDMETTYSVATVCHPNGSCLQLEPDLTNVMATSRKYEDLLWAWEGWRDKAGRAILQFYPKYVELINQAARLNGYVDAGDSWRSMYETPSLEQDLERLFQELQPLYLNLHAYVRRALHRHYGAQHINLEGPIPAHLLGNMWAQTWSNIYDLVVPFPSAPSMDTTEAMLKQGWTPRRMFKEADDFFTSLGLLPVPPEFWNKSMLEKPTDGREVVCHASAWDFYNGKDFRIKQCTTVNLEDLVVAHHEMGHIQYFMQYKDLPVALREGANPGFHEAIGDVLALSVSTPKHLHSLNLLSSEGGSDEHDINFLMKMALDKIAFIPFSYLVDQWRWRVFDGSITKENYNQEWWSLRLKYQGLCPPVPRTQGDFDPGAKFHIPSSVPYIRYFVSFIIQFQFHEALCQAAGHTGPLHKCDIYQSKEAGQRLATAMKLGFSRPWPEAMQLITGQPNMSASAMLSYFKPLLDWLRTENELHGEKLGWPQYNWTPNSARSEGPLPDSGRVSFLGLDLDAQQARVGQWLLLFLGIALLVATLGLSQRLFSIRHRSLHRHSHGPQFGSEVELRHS

Molecule | PIC50
FCLYELAR [ACEI peptide, 3D-QSAR training set] | -1.50
His-Cys-His-Thr (HCHT) [ACEI peptide, 3D-QSAR training set] | -2.06
FQKVVAK [ACEI peptide, 3D-QSAR test set] | -0.32
Lys-Ser-Val [ACEI peptide, 3D-QSAR training set] | -3.01
His-Cys-His-Thr-Asn (HCHTN) [ACEI peptide, 3D-QSAR test set] | -1.48
PANIKWGD [ACEI peptide, 3D-QSAR training set] | -1.32
Asp-Phe-Gly [ACEI peptide, 3D-QSAR training set] | -1.65
Leu-Gln-Lys-Trp (LQKW) [ACEI peptide, 3D-QSAR test set] | -1.54
TFQGPPHGIQVER [ACEI peptide, 3D-QSAR training set] | -0.53
Val-Leu-Pro-Tyr-Pro (VLPYP) [ACEI peptide, 3D-QSAR training set] | -1.56
Cys-Cys-Asn-Lys (CCNK) [ACEI peptide, 3D-QSAR training set] | -0.95
IIAPPER [ACEI peptide, 3D-QSAR training set] | -0.94
AHSVRF [ACEI peptide, 3D-QSAR test set] | -1.26
GKDAVIV [ACEI peptide, 3D-QSAR training set] | -1.26
CCNKSV (cysteine pairing not given here) [ACEI peptide, 3D-QSAR test set] | -1.18
GIPLPLI [ACEI peptide, 3D-QSAR training set] | -1.87
AHSVRFY [ACEI peptide, 3D-QSAR test set] | -1.21
YETGNGIK [ACEI peptide, 3D-QSAR training set] | -0.57
PTHIKWGD [ACEI peptide, 3D-QSAR training set] | -0.18
GRVSNCAA [ACEI peptide, 3D-QSAR training set] | -1.76
Tyr-Thr-Val-Phe (YTVF) [ACEI peptide, 3D-QSAR training set] | -1.94
ADGLWL [ACEI peptide, 3D-QSAR training set] | -2.45

Molecule | PIC50
Pro-Ser-Phe-Gln-Pro (PSFQP) [ACEI peptide, 3D-QSAR training set] | -1.86
TYLPVH [ACEI peptide, 3D-QSAR test set] | -0.14
LPGVLPVA [ACEI peptide, 3D-QSAR test set] | 0.11
Phe-Pro-Gln-Tyr (FPQY) [ACEI peptide, 3D-QSAR training set] | -2.48
LVLPGE [ACEI hexapeptide of the authors' previous studies; alignment template, training set] | -1.13
Ala-His-Ser-Val (AHSV) [ACEI peptide, 3D-QSAR training set] | -3.26
LVLPGELAK [ACEI peptide, 3D-QSAR training set] | -2.26
LHPGDAQR [ACEI peptide, 3D-QSAR training set] | -1.01
Leu-Val-Leu [ACEI peptide, 3D-QSAR training set] | -1.09
Leu-Ala-Lys [ACEI peptide, 3D-QSAR test set] | -1.68
Gln-Val-Gly-Pro (QVGP) [ACEI peptide, 3D-QSAR training set] | -2.21
FPEVFGK [ACEI peptide, 3D-QSAR training set] | -2.15
KVREGTTY [ACEI peptide, 3D-QSAR training set] | -2.01
Leu-Phe-Arg-Gln (LFRQ) [ACEI peptide, 3D-QSAR test set] | -1.23
LPQNILP [ACEI peptide, 3D-QSAR test set] | -1.66
Ser-Leu-Pro-Gln-Asn (SLPQN) [ACEI peptide, 3D-QSAR training set] | -0.98
NMAINPSK [ACEI peptide, 3D-QSAR training set] | -1.78
GYALPHA [ACEI peptide, 3D-QSAR training set] | -1.44
IGPGLGR [ACEI peptide, 3D-QSAR training set] | -2.32
Tyr-Pro-Gly [ACEI peptide, 3D-QSAR training set] | -1.37
LGPLGHQ [ACEI peptide, 3D-QSAR training set] | -0.63
Val-His-Leu-Pro-Pro (VHLPP) [ACEI peptide, 3D-QSAR test set] | -1.26

System: not listed separately
Experiment: Stability of peptides after simulated gastrointestinal digestion in vitro
Type: in vitro ADME
Conditions: pepsin (1000 U/mL) and pancreatin (50 U/mL); peptide 0.5 mg/mL; LC-MS (Q Exactive, ESI positive); peak area after/before digestion × 100
Protocol: The stability in vitro digestion followed the method we reported previously with minor modifications. Pepsin (1000 U/mL) and pancreatin (50 U/mL) were used to digest the peptide (0.5 mg/mL). A Q Exactive system (Thermo Fisher Scientific, USA) equipped with ESI in positive ion mode was used for mass spectrometric detection. Stability %=Peak area after digestion sample/Peak area before digestion sample×100%

Simulated Gastrointestinal Digestion Stability % [%] | Molecule
90 | TVKPGL [TVKPGL]
78 | KALVAP [KALVAP]
82 | RLPHV [RLPHV]

Target: T1, ACE
Experiment: ACE-inhibitory activity assay in vitro (HHL substrate, hippuric acid by HPLC)
Type: biochemical
Conditions: 1 h, pH 8.3, read-out: ACE Inhibition Rate (%) (2 mg/mL)
Protocol: The method used to determine ACE-inhibitory activity was designed according to that of Sangsawad et al. with minor modifications. […] The reaction mixture comprised 50 μL of peptide and 50 μL of ACE (25 mU/mL), undergoing pre-incubation for 5 min at 37 °C. Subsequently, 150 μL of substrate (8.3 mM HHL in 0.1 M Tris-HCl buffer with 500 mM NaCl at pH 8.3) was introduced, and the sample was further incubated at 37 °C for 60 min. Following the completion of the reaction, it was terminated via the addition of 1 M HCl. […] IC50 was used to express the activity of hydrolysate; all analyses were carried out under five different concentrations in triplicate.

Molecule | inhibition at 2000 µg/mL [%]
CC(C)C[C@H](NC(=O)[C@H](Cc1c[nH]cn1)NC(=O)[C@H](CC(C)C)NC(=O)[C@@H](N)Cc1ccc(O)cc1)C(=O)O [YLHL] (H-YLHL-OH) | 65.4

Same assay, conditions: 1 h; peptide 2 mg/mL; HHL substrate, pH 8.3, 37 °C, 60 min; HPLC of hippuric acid; read-out: ACE Inhibition Rate (%) (2 mg/mL)

inhibition at 2000 µg/mL [%] | Molecule
100 | TVKPGL [TVKPGL]
74.8 | PRPKPPP [PRPKPPP]
4.5 | N=C(N)NCCC[C@H](NC(=O)[C@H](CCC(=O)O)NC(=O)[C@@H]1CCCN1)C(=O)N[C@@H](CCCCN)C(=O)O [PERK] (H-PERK-OH)
100 | KALVAP [KALVAP]
24.2 | LEKPLL [LEKPLL]
22.9 | N=C(N)NCCC[C@H](NC(=O)[C@@H]1CCCN1C(=O)[C@H](Cc1ccccc1)NC(=O)[C@@H](N)CCCNC(=N)N)C(=O)O [RFPR] (H-RFPR-OH)
30.5 | LEKLVT [LEKLVT]
100 | RLPHV [RLPHV]
-14.2 | KVKPL [KVKPL]

Same assay, conditions: HHL substrate, pH 8.3, 37 °C, 60 min; HPLC of hippuric acid; five concentrations in triplicate

IC50 | Molecule
6.01 µM and 3.81 µM | TVKPGL [TVKPGL]
17.1 µM | KALVAP [KALVAP]
3.81 µM and 6.01 µM | RLPHV [RLPHV]
